This test has as its target α-dystroglycan isolated from skeletal muscle (UniProt Q28685). The experiment in a line: ELISA. A general note: An ELISA detects its analyte on a solid surface through an enzyme-linked reagent.

This note sets out measurements from article PMC3080791.

Sequence of UniProt Q28685 (Q28685 30-653): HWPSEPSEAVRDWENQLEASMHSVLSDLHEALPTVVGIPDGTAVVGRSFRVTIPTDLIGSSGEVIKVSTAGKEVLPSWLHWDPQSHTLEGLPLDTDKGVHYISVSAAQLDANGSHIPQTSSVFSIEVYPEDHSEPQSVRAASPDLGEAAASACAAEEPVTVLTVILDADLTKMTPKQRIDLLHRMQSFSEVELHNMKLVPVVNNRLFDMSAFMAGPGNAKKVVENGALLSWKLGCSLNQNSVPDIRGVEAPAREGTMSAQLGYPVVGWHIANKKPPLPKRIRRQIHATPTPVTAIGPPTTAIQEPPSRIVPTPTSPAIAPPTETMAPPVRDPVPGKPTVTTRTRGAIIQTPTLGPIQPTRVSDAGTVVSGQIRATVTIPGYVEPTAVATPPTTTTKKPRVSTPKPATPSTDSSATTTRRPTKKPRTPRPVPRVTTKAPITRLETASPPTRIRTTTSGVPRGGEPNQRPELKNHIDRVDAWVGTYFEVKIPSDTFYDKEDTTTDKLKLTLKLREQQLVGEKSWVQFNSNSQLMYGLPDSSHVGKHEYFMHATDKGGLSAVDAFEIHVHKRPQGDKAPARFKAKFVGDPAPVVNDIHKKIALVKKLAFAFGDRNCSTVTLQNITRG

For the substance “LCMV WE54 envelope glycoprotein displayed on FIV lentiviral vector particles (FIV-WE54) (complex)”, the OD relative to wild-type LCMV WE54 came to 0.33.
